Experimental data published in the Immune Epitope Database (IEDB).

Tests used:
Test in all cases: IEDB peptide-MHC binding, purified MHC/competitive/radioactivity; filed as Kd, often an IC50 or EC50 that approximates it; ≥ and ≤ were set here for values at or beyond the usual limits of such assays
[1] = target: HLA-A*31:01
[2] = target: HLA-A*11:01
[3] = target: HLA-A*68:01
[4] = target: HLA-A*33:01
[5] = target: HLA-A*03:01
[6] = target: HLA-A*02:02; details: source organism: Vaccinia virus WR
[7] = target: HLA-A*02:03
[8] = target: HLA-A*02:06; details: source organism: Vaccinia virus WR
[9] = source organism: Vaccinia virus WR
[10] = source organism: SARS coronavirus Tor2
[11] = source organism: Dengue virus 2 Jamaica/1409/1983
[12] = source organism: Lassa virus Josiah
[13] = source organism: Mammarenavirus machupoense

For RVMANNVKK, the Kd [1, 9] was 139 nM, the Kd [2, 9] was 16.7 nM and the Kd [3, 9] was 104 nM. For the same sequence, the Kd [4, 9] was no less than 77700 nM and the Kd [5, 9] was 17.2 nM.
Work on SFSNTIQSYK yielded a Kd [1, 9] of 220 nM, a Kd [2, 9] of 130 nM and a Kd [3, 9] of 177 nM. It also gave a Kd [4, 9] of 12200 nM and a Kd [5, 9] of 117 nM.
SIENKHQRRL showed a Kd [6] of 17000 nM, a Kd [7, 9] of no less than 21100 nM and a Kd [8] of no less than 53900 nM.
Work on SIRPRVTKQY yielded a Kd [1, 9] of 6270 nM, a Kd [2, 9] of 9160 nM and a Kd [3, 9] of 8010 nM. The Kd [4, 9] was no less than 70000 nM and the Kd [5, 9] was 884 nM.
Work on SITPNNLNK yielded a Kd [1, 9] of no less than 77900 nM, a Kd [2, 9] of 25.4 nM and a Kd [3, 9] of 1450 nM. It also gave a Kd [4, 9] of no less than 77700 nM and a Kd [5, 9] of 866 nM.
SLKRFTHTT showed a Kd [6] of 825 nM, a Kd [7, 9] of 9.05 nM and a Kd [8] of no less than 60100 nM.
Sequence SLLRSTSQK has a Kd [1, 10] of 802 nM, a Kd [2, 10] of 12.8 nM and a Kd [3, 10] of 3040 nM. It also gave a Kd [4, 10] of 14700 nM and a Kd [5, 10] of 2.56 nM.
In the case of SMFEPEREKV, the Kd [7, 11] is reported as 140 nM.
SQFSYKELYV gave a Kd [6] of 14.1 nM, a Kd [7, 9] of 27.2 nM and a Kd [8] of 71.4 nM.
Sequence SSFIVPEFAK has a Kd [1, 9] of 9400 nM, a Kd [2, 9] of 0.534 nM and a Kd [3, 9] of 2.23 nM. The Kd [4, 9] was 9270 nM and the Kd [5, 9] was 37.4 nM.
Sequence SSYIDFENTK has a Kd [1, 9] of 137 nM, a Kd [2, 9] of 0.158 nM and a Kd [3, 9] of 23.5 nM. The Kd [4, 9] was 392 nM and the Kd [5, 9] was 629 nM.
In the case of STISWMMKL, the Kd [6] is reported as 92.2 nM, the Kd [7, 9] is reported as 22.8 nM and the Kd [8] is reported as 12.1 nM.
SVLNDILSR gave a Kd [1, 10] of 1140 nM, a Kd [2, 10] of 148 nM and a Kd [3, 10] of 4270 nM. The Kd [4, 10] was 5660 nM and the Kd [5, 10] was 7790 nM.
With SVLRAVLPR the Kd [1, 12] was 10.6 nM, the Kd [2, 12] was 8.96 nM and the Kd [3, 12] was 66.7 nM. It also gave a Kd [4, 12] of 537 nM and a Kd [5, 12] of 208 nM.
TLISSDGAR was tested, and the Kd [1, 9] was 80.3 nM, the Kd [2, 9] was 1400 nM and the Kd [3, 9] was 5.13 nM. The Kd [4, 9] was 198 nM and the Kd [5, 9] was 4090 nM.
With TLSERISSK the Kd [1, 9] was 2310 nM, the Kd [2, 9] was 2.91 nM and the Kd [3, 9] was 48.3 nM. It also gave a Kd [4, 9] of 9910 nM and a Kd [5, 9] of 6.16 nM.
For TSEKYSKGY, the Kd [1, 9] was no less than 77900 nM, the Kd [2, 9] was no less than 77900 nM and the Kd [3, 9] was no less than 77700 nM. For the same sequence, the Kd [4, 9] was no less than 77700 nM and the Kd [5, 9] was no less than 78000 nM.
Work on TSVSAKQLR yielded a Kd [1, 9] of 2600 nM, a Kd [2, 9] of 2810 nM and a Kd [3, 9] of 11.2 nM. It also gave a Kd [4, 9] of 9110 nM and a Kd [5, 9] of no less than 78000 nM.
Work on TTIKPVSYK yielded a Kd [1, 10] of 103 nM, a Kd [2, 10] of 0.759 nM and a Kd [3, 10] of 1.5 nM. It also gave a Kd [4, 10] of 144 nM and a Kd [5, 10] of 2.04 nM.
VFAQVKQMYK gave a Kd [1, 10] of 124 nM, a Kd [2, 10] of 60.6 nM and a Kd [3, 10] of 179 nM. The Kd [4, 10] was 863 nM and the Kd [5, 10] was 66.5 nM.
VFLILCFTIK was tested, and the Kd [1, 10] was 613 nM, the Kd [2, 10] was 371 nM and the Kd [3, 10] was 965 nM. It also gave a Kd [4, 10] of 4070 nM and a Kd [5, 10] of 168 nM.
In the case of VMKDGRVLV, the Kd [7, 11] is reported as 50.7 nM.
VSMMSMYGK showed a Kd [1, 9] of 113 nM, a Kd [2, 9] of 1.18 nM and a Kd [3, 9] of 5 nM. For the same sequence, the Kd [4, 9] was no less than 23500 nM and the Kd [5, 9] was 15.2 nM.
In the case of VSVDAMIHK, the Kd [1, 9] is reported as 7140 nM, the Kd [2, 9] is reported as 2.46 nM and the Kd [3, 9] is reported as 1450 nM. For the same sequence, the Kd [4, 9] was no less than 31900 nM and the Kd [5, 9] was 1820 nM.
Work on VVENPTIQK yielded a Kd [1, 10] of 18700 nM, a Kd [2, 10] of 7.63 nM and a Kd [3, 10] of 407 nM. The Kd [4, 10] was no less than 64100 nM and the Kd [5, 10] was 328 nM.
With WLSYFVASFR the Kd [1, 10] was 0.461 nM, the Kd [2, 10] was 14.5 nM and the Kd [3, 10] was 0.494 nM. The Kd [4, 10] was 13.4 nM and the Kd [5, 10] was 56.6 nM.
For YSSMTSDSK, the Kd [1, 9] was 4860 nM, the Kd [2, 9] was 10.5 nM and the Kd [3, 9] was 2.38 nM. For the same sequence, the Kd [4, 9] was no less than 21400 nM and the Kd [5, 9] was 1980 nM.
With YVMNIERQDY the Kd [1, 9] was 10200 nM, the Kd [2, 9] was 19000 nM and the Kd [3, 9] was 189 nM. The Kd [4, 9] was no less than 23300 nM and the Kd [5, 9] was no less than 70100 nM.
With YVNHTLTGQH the Kd [1, 13] was no less than 70000 nM, the Kd [2, 13] was no less than 69700 nM and the Kd [3, 13] was no less than 70100 nM. It also gave a Kd [4, 13] of 29.5 nM and a Kd [5, 13] of no less than 70000 nM.
